Measurements reported in the domain aggregation screens of Martell et al. (2025).

Experiment: soluble fraction after stress (log2 fold change); higher = more stays soluble; pooled small domains, quantitative proteomics
Details: stress: 75 degC
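Also: 20 min heating vs room temperature control held 20 min.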

HMVSTDPVHLFNLGTANRRAGRASEAITSYRKFMEAAPQHPQVPEARAYIHDMEVLLQERQKSEQAASQLS
soluble fraction (log2): 0.143

HMTDDFAGRFNELLIHNQETAVTAATRLEVSPAVITKWRQGKSIPSGEYIKRIVETYHVSADYLLGVIDTP
soluble fraction (log2): -0.838

HMKSDEGEIKKIVEEIISKNASVVEDYKKGKEVALQFLVGQGMKATKGSANPELLKKIILENI
soluble fraction (log2): 1.01

HMRQYPSGVFKEEGVKAVYIHAGTPFLVIAAQYKIPLARLFEWNNLLPSTEARISQVIYLERPG
soluble fraction (log2): -3.92

HMDIVIPIQVKNVSSGEVLDFPSIRAAARDLKFPKTTISLGVRYAGEKAYKGFVMRYRSDDPWPIVQES
soluble fraction (log2): -2

HMETLYGQIVNDIMEKIESNAWPVGYVIPTESDFQKQYGVSRATVRNAILKLAHLGYLVRKKGSGTYVTRP
soluble fraction (log2): -1.25

HMEGTAAAVALKGLMEQSGVDLREVMAAVESRGYYPKGTPFENYDPAFVSGVLVGAWDQVYKMILDQRPIP
soluble fraction (log2): -0.692

HMQVITEPFQEKYREFINMSTVTQRLEERETLSFTAQTVEGRWLTIIIVPQGYDKTGKLSTVLVANR
soluble fraction (log2): 0.274

HMLAVEKIEFVGNERIAAADLESALSALYDRPMTTISDDEIAKLLSGFSLIETFTSQAEPPHTLRVNIRE
soluble fraction (log2): 0.083

HMTIFGWQTDETGKWYRNADGTFFEAGWKEIDGAKYYFDENGYVKTGWLELDGKDYYFDEEGRYDSSKVR
soluble fraction (log2): 0.299

HMNRIEMTEPIIIKDLSRETGIPWVAIQKRLAQDGIMANINTTIEAEKAQLIAVDYGIELAVV
soluble fraction (log2): -0.427

HMFAATGVVNAPSGLVLRETASKGGNPLATVPDKAQVEIVEEDGEWYKVKVNEQTGYLFAEFVNKTE
soluble fraction (log2): -0.0895

HMNEQKVSSLLTPRQLAFIDEYLIDFNGAQAAIRAGYSHKTAGPQAARLLVNVNISRMIAERIEARNK
soluble fraction (log2): -2.5

HMTKLLSALQADKFAKKLANDTNFGSNFARMGESAMDFTNRLVEELQRDEGKVANYMPYLTKLGF
soluble fraction (log2): 0.204

HMVDKDFKPLYASLERLDSTSIIEILDSNRIDYRIDQRSGALLVDADQIHQARLSLASAGMPA
soluble fraction (log2): -0.263

HMLARFSGIALNTWTQADVERTFGPPMLVERVARFDGDIWTYRFMDDYEPRMAHIHIDRAGTVRQLVF
soluble fraction (log2): -2.86

HMQEKLELIIPVSSIGKRADVAIQDLLSSYSRAKIQEWIKSGFILLESKKISPKDIFMGGERVFIDIQQDE
soluble fraction (log2): -1.86

HMRKKDGEAYVLPRPLKKGDSVLIYDIDKKGTVLQPPEKGGKTALIQAGIIQTRVPVSNLRLLE
soluble fraction (log2): 0.537

HMARSVAEFVERGRSGGSLERPKLQRMLEYIQDRPVDFVIVHKIDRLARNRADDAAITKTIRGAGAYLVST
soluble fraction (log2): 0.1

HMAVNSALVQRNWLIGYRIAEEELQGDNRAEYGASIIKKLAKELTAEYGKGYTKTNLYHFYSFYKT
soluble fraction (log2): -0.0399

HMNTKLSYSDLIEKIEAGQVEKVELDAGGSSAIVKLKNDNIEKRVNVPSIDNLMENLQDNMKTGNISVTE
soluble fraction (log2): 0.168

HMTPTNILIVEDEKEIRRFVRTALESEGLRVFESETLQRGLIEAGTRKPDLIILDLGLPDGDGLSYIRDLR
soluble fraction (log2): -0.0383

HMLPLHFIEIVSLKKIDTLTKRKELINYAFSKNEKTYIYKLAFKKKSELDNLYKEINLFNEIINIDIRHS
soluble fraction (log2): -0.577

HMLVPWKSANLFKLVEPNFRLAERKIPMLPSADREKLQEIMSDMKDAIVDNDKMALMKLDEELTDFLFDFV
soluble fraction (log2): -1.49

HMEELTPLQKYVFDYESDISDEVDMRAIKGLENANDVYDYYANVRGWEGDPDLEDDLDNIYRQVKARFA
soluble fraction (log2): 0.0255

HMPTITSPMVGTFYRAPSPGAAPFIEVGDTVKKGQVIGIIEAMKLLNEVEADKDGVVQAFAAENGEL
soluble fraction (log2): -0.335

HMTQQYVEWKVYNVTTIKNKYGFRVKLIFQDGSDATQQKGGFTSKKAAEQARTEVIGQLYSNTYVVY
soluble fraction (log2): -4.59

HMSGSIIQQAENLERQFGDTREAILGTLSDPKMSEEILETLMERYNKQHGTNWDKNTWAEEWAKANK
soluble fraction (log2): 0.682

HMASSVKAPLPGVILDIKVKVGDTIKNGDTVVILEAMKMENNIHSDKDGVVKSIEVNKGDSVLEGATLLTI
soluble fraction (log2): 0.33

HMGKKYVPGMAVKLSAVPLYAASTSKVPSTHVTGTYYLWDDEVVRGRLRITNLKSRVGISGQVTGWIDKDR
soluble fraction (log2): -1.95

HMTMKQVFIETDANVNQKIMLNEKEAHHLFDVLRTSDKETIRVVTNTSQVFLARVQQKPYIYLFDKMTVE
soluble fraction (log2): -2.49

HMGNIIITPNPASDFIKIISNSPIIKFGFYDIYGNTINKKFNDNSINISDLPVGMYLINLNERYFKLLK
soluble fraction (log2): -0.259

HMELEKIRPDLDGLEIMAILGISPSPIVGRAYQYLLDLRMDRGPLGPDAAKAELLNWWSLNQPK
soluble fraction (log2): -1.66

HMDSSNLSLIAGVGPTIEKKLRAAGITSWEQIAAWTEADVAKYDEELNLRGRITRDEWIEQAKELLAGKPP
soluble fraction (log2): 0.0267

HMAIVNVEVPSLVGKTEQEARNLLTEAGLKVNVVNDEDESKNDGVVLRQSKDAGTEVQEGTTITITVNKVS
soluble fraction (log2): 0.0932

HMAPVLTRREHEVLHLLTDGLDNRTIARNLFISEATVKFHLHNIMGKFGVHRRAALVSTALRG
soluble fraction (log2): -2.22

HMLMRSPDFLIGWFQNLVAKRETFNDQVQAKNLIEAGKQHIQGEDFDRLLEVNRRLFSLLPQREQE
soluble fraction (log2): 0.177

HMTGMEASLSKLLQGEQFADLRKALIDKGIRKLEAFKRLNLWVFMNRNRLYSIGQRQTVYSTLQRALASE
soluble fraction (log2): -0.0934

HMDTMINLIGLNLKKAKKELSNLGVNVKKVRYKKSSVYDEGVVIDQSIEAGRNIKNGDFITITVSSGKA
soluble fraction (log2): -0.473

HMAVSTFGRITASSLNVRSGPSTDHEKVGSLAAGRVVELLEESDGWYRIENGYISTEYVTIVDPSQ
soluble fraction (log2): -0.715

HMQEVILEKIQLTYLSADKLSKMAEQFSIPVKMYWVDENPMMLMVMGNESDIATFKKVLTQIDIPENKS
soluble fraction (log2): -0.268

HMTRQKEAILALLTDSRGEALSASELLARLTRSGSSIGRTTVYRLLSQLVDDGVVRAWRDASRGITLYELS
soluble fraction (log2): -1.1

HMSFGFFELKSSDTDKLFAYLNNNEHFGNIKEENGLVTAFLTSELDAQTLNKLLFDNGIIASHLVKRK
soluble fraction (log2): -0.928

HMRLPQEVWEKIRAAYEAHGLSFSELAEMYGVNKSNISRRAKAEGWNQAETQRLITATVENE
soluble fraction (log2): 0.374

HMPIRMLQVQKTNTGYLNVRDTPSVSGALIGKVFPGDMLSSTEERDGWFLVAVPQGGTGWVSGDYVKTTS
soluble fraction (log2): -0.191

HMVLIQNEDVKDISNYPLLSSVPVFDVFNNKMIIPTFNKDSFNPLIYNFNFNSKRRLIYRVDNTNYLIVIK
soluble fraction (log2): 0.0494

HMLFGKKYLGKVPNDASGRISLWNDIVKHHQELQNIRAIENFTSDNVTVAQGDTKKAVVVTDYVT
soluble fraction (log2): -0.286

HMDFDPDVPSREDILQAFRDSKPPLTVNALISEFGLSRDASIVGLERRMGAMQRDGQLEQTPSGWQLSV
soluble fraction (log2): -0.164

HMPLTEMAVRKHLSAELAQKGYTIDPRALEILLQRTNTNLTAIANELPKLLLVAEDKQITVNEVSAM
soluble fraction (log2): -0.319

HMINLVPFELKFITAQVLDDIIKKIGINADTIILDINPKKIWVYAGEQELSDIQNIVKNVDVEDNI
soluble fraction (log2): -1.71

HMRTSIWTAIAHSLRSDIGSGVYGPDDKLPTESALAARFGVNRHTVRHAIKALTDEGLVLPRRGAGVFVTS
soluble fraction (log2): -0.241

HMSPDTREAILAAARTAFARDGYQTSLRGIARDAGVDPALVHHYFPDRATLFAKAVIESTAG
soluble fraction (log2): -0.0532

HMDGIGLRVRMIREGVGLTQKQLAEHLGMQRTALVQVEAGSRKLSASELIGVARFFNITVEQFLDPEK
soluble fraction (log2): -3.5

HMAIKTGAVTGHGVKVRKGPSTNEKAIHDVLYGSRLQILEEKNGFLKAKFEDGTTGWISKQFVTTTDKNLL
soluble fraction (log2): -0.0233

HMFSGVQLGQAISEAIKRKNVSQKEVADHFGVKQPSVSGWIKNGRIDKKHLDKLIDYFSDVVTPSHFGIE
soluble fraction (log2): 0.27

HMPSALGDKIRAARKALKLSLEDLAEKVSSSKSYMWELENRDEPNPGADLLMRIAAALNVTTEHLLGP
soluble fraction (log2): -0.28

HMGDTHKVPGVKGVNVEQAMDMLSRLDLKAVVIDSVYVKDKKLGTVIEQNPVEGSVVKPGRPIYLVVNSRS
soluble fraction (log2): 0.352

HMNLGNLLKIYRKNSLLTQQQVADALNINRTTYTYYETGKTEPSIDTLHKLIKIFGITYDDLL
soluble fraction (log2): -2.88

HMGDWITGTVTRIADNGWGTFQPENAHNTVSIPPKMVADNQLKEADSIKIIAEPSPDGTKTFIKAISRE
soluble fraction (log2): 0.113

HMVTGSIYERKGIYYAIVSYYVDGRRKQKSVSTGLSVKGNKRRALEFLENLKRTYETKESMENMD
soluble fraction (log2): -3.79

HMANPFQELTERELDVLRQVAAGKNNREIAEALFIGEKTVKTHISNILSKLHLADRTQAAVYAWQQGMM
soluble fraction (log2): -0.223

HMKYYIYQGLGDSGELTKIAEVTDVKTYTATGLEANTKYRFAVSAYNGLRESSKSNIITVTT
soluble fraction (log2): 0.0116

HMQQGVEQLPVTEVGGRLMHYYEVQPKETLYSLSHKLGVGQEYIEQHNPSVRGGLRAFMTLYFPAA
soluble fraction (log2): -0.00835

HMASATGVVTAASLNVRSGAGTNYSVVNTLAKGTKVTVLNTADGWYEIEATVNNEKITGYVSATYIAMD
soluble fraction (log2): -0.538

HMESIEGMYKISLLRKQGNAYVIFEDENKEAVEHIFPEKPTALELGTKVIEMFEYKERYDGLI
soluble fraction (log2): -0.343

HMSQIQIKLDQAIMQLPEKQRFVFMLRYFEELPYEKIAQITETSIGGAKANFHQALKKMQEIIQ
soluble fraction (log2): -2.96

HMQAPHLALSPREFQVLQGLLAGDALDIIAERLHLSAKTVSNHQTLIRQKLGVGNAVELLRYAQLHRL
soluble fraction (log2): -2.49

HMNPGNTESFPVYQKRLGEIIQTLAGKKGQDINSPEVKELVGEYDFLTKQMFQLPDATSMVMEIATAYRN
soluble fraction (log2): 0.0725

HMKRKAIDQSWQPDKEAIEILSKAGVNEEFIKEEIPEFILYWSEKGEESDTWNSKFIAQVRRQWAKTQH
soluble fraction (log2): -0.121

HMSRKERERSQHRRDILAAGEKIFAQKGYFNATIEEIAREAEFSVGTIYNFFSNKETLYQEIIRSI
soluble fraction (log2): -0.418

HMEVNLEPLIALLRKHRDLDLSGYSKSTLGRRITYFMGLNKISSIDELGRRLAEDDLLFQEFLDKLT
soluble fraction (log2): -0.264

HMENEFEAYSDGSSIQLNDPSKATYVVFDRQGRLLHLFQNHSLSSLSIERKNQILIITRETADGVSVKKIV
soluble fraction (log2): -0.53

HMGESVVVPDLRGKTLEEARAILKKVDLDYEINDSTYSKTAVPGTIRDIVPAPGSHVKAGRILFVSING
soluble fraction (log2): -0.553

HMDGISANAVKALIESLIAGEDKRKPLSDQAMSDRLALQGIVLARRTVAKYREELNFPPAHQRKQK
soluble fraction (log2): -1.41

HMTRNEFMTALRKRLSHLPAEEQDAALKYYEEYFDEAESEEEAARQLGSPDAIADRILADYGAG
soluble fraction (log2): 0.327

HMADKGTITNQQEKILKALILFPEGASIEEIQKAADLGIDKRQFQRRLNTLIESGQINRTGKSRGTKYHTI
soluble fraction (log2): 0.201
